For experiment [1], the target named is T1, Recombinant Human IL-1β (human, UniProt P01584 117-269). In words: cell-based or functional assay.
Experiment [2] has as its target T1, Recombinant Human IL-1β. In words: Biacore SPR; N-terminal VD. Put shortly: (§1)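 Rate constants fitted globally to a 1:1 Langmuir model from antigen series of 10−200 nM flowed at 25 μl/min over captured antibody or DVD-Ig (anti-mouse IgG Fcγ capture, ligand at 25 μg/ml).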
(In SPR one partner is held on a chip, and binding of the other changes the refractive index at the surface.)

The target in experiment [3] is T2, Recombinant Human IL-17 (human, UniProt Q16552 20-155, limits assumed).
T2 construct: Bought reagent
T2 sequence (looked up): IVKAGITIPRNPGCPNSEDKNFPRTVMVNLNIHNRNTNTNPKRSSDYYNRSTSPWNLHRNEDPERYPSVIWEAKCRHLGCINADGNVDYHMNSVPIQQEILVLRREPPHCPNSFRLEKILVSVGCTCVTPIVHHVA
In words: Biacore SPR; C-terminal VD. Put shortly: as §1

The target of experiment [4] is T2, Recombinant Human IL-17. The experiment is described as follows: cell-based or functional assay.
Experiment [5] deals with T2, Recombinant Human IL-17. The experiment is described as follows: Biacore SPR; N-terminal VD. Put shortly: as §1
In experiment [6] the target is T1, Recombinant Human IL-1β. The experiment is described as follows: Biacore SPR; C-terminal VD. Put shortly: as §1

Positions count from the first letter of the chain named.

B1: DVD1647 (bispecific antibody, human IgG1, kappa)
heavy: not shown
light: ETTVTQSPSSLSASVGDRVTITCITSTDIDVDMNWYQQKPGKPPKLLISQGNTLRPGVPSRFSSSGSGTDFTFTISSLQPEDFATYYCLQSDNLPLTFGQGTKLEIKRTVAAPEIVLTQSPDFQSVTPKEKVTITCRASQNIGSELHWYQQKPDQSPKLLIKYASHSISGVPSRFSGSGSGTDFTLTINGLEAEDAATYYCHQSDTLPHTFGQGTKVDIKRTVAAPSVFIFPPSDEQLKSGTASVVCLLNNFYPREAKVQWKVDNALQSGNSQESVTEQDSKDSTYSLSSTLTLSKADYEKHKVYACEVTHQGLSSPVTKSFNRGEC
notes: DVD-Ig: outer AB272, inner AB275; V1/V2 vectors: wild type hIgG1, kappa
Turning to B1, the “N-Terminal VD IL-1β Neutralization Assay EC50” value with Recombinant Human IL-1β [1] came to 0.152 nM. For the same molecule, in the experiment with Recombinant Human IL-1β [2], the Kd came out at 0.083 nM, the off-rate (koff) stood at 0.00059 s⁻¹ and the kon came out at 7.1e+06 M⁻¹ s⁻¹. Moreover, in the experiment with Recombinant Human IL-17 [3], the dissociation constant (Kd) was 0.53 nM, the koff was found to be 9e-05 s⁻¹ and the kon worked out at 170000 M⁻¹ s⁻¹. Further, the “C-terminal VD IL-17 Neutralization Assay EC50” value with Recombinant Human IL-17 [4] came to 0.34 nM.

B2: DVD1636 (bispecific antibody, human IgG1, kappa)
heavy: not shown
light: EIVLTQSPDFQSVTPKEKVTITCRASQDIGSELHWYQQKPDQPPKLLIKYASHSTSGVPSRFSGSGSGTDFTLTINGLEAEDAGTYYCHQTDSLPYTFGPGTKVDIKRTVAAPDTVVTQSPAFLSVTPGEKVTITCITSTDIDVDMNWYQQKPDQPPKLLISQGNTLRPGVPSRFSSSGSGTDFTFTISSLEAEDAATYYCLQSDNLPLTFGQGTKLEIKRTVAAPSVFIFPPSDEQLKSGTASVVCLLNNFYPREAKVQWKVDNALQSGNSQESVTEQDSKDSTYSLSSTLTLSKADYEKHKVYACEVTHQGLSSPVTKSFNRGEC
notes: DVD-Ig: outer AB274, inner AB271; V1/V2 vectors: wild type hIgG1, kappa
Regarding B2, the “C-Terminal VD IL-1β Neutralization Assay EC50” value with Recombinant Human IL-1β [1] was found to be 27.1 nM. Besides, in the experiment with Recombinant Human IL-17 [5], the Kd came out at 0.0046 nM, the koff stood at 1.9e-05 s⁻¹ and the on-rate (kon) stood at 4.1e+06 M⁻¹ s⁻¹. In the experiment with Recombinant Human IL-1β [6], the dissociation constant Kd turned out to be 0.6 nM, the off-rate (koff) amounted to 0.00063 s⁻¹ and the association rate constant (kon) turned out to be 1e+06 M⁻¹ s⁻¹. The “N-terminal VD IL-17 Neutralization Assay EC50” value in the experiment with Recombinant Human IL-17 [4] worked out at 0.0075 nM.

B3: DVD1634 (bispecific antibody, human IgG1, kappa)
heavy: not shown
light: EIVLTQSPDFQSVTPKEKVTITCRASQDIGSELHWYQQKPDQPPKLLIKYASHSTSGVPSRFSGSGSGTDFTLTINGLEAEDAGTYYCHQTDSLPYTFGPGTKVDIKRTVAAPDTQVTQSPSSLSASVGDRVTITCITSTDIDVDMNWYQQKPGKPPKLLISQGNTLRPGVPSRFSSSGSGTDFTFTISSLQPEDFATYYCLQSDNLPLTFGQGTKLEIKRTVAAPSVFIFPPSDEQLKSGTASVVCLLNNFYPREAKVQWKVDNALQSGNSQESVTEQDSKDSTYSLSSTLTLSKADYEKHKVYACEVTHQGLSSPVTKSFNRGEC
notes: DVD-Ig: outer AB274, inner AB270; V1/V2 vectors: wild type hIgG1, kappa
In the case of B3, in the experiment with Recombinant Human IL-1β [1], the “C-Terminal VD IL-1β Neutralization Assay EC50” value is above 12 nM. In the experiment with Recombinant Human IL-17 [5], the Kd was found to be 0.0052 nM, the dissociation rate constant (koff) was 1.9e-05 s⁻¹ and the kon worked out at 3.7e+06 M⁻¹ s⁻¹. Also, in the experiment with Recombinant Human IL-1β [6], the Kd turned out to be 0.63 nM, the off-rate (koff) was determined as 0.00055 s⁻¹ and the kon was 870000 M⁻¹ s⁻¹. In the experiment with Recombinant Human IL-17 [4], the “N-terminal VD IL-17 Neutralization Assay EC50” value was determined as 0.0241 nM.

B4: DVD1638 (bispecific antibody, human IgG1, kappa)
heavy: not shown
light: B3 light with D114E, Q116T
notes: DVD-Ig: outer AB274, inner AB272; V1/V2 vectors: wild type hIgG1, kappa
Take B4: the “C-Terminal VD IL-1β Neutralization Assay EC50” value with Recombinant Human IL-1β [1] was above 20 nM. Besides, in the experiment with Recombinant Human IL-17 [5], the dissociation constant Kd came out at 0.0068 nM, the koff was found to be 2.7e-05 s⁻¹ and the kon amounted to 3.9e+06 M⁻¹ s⁻¹. Also, in the experiment with Recombinant Human IL-1β [6], the Kd was determined as 0.63 nM, the off-rate constant (koff) was determined as 0.00085 s⁻¹ and the kon worked out at 1.3e+06 M⁻¹ s⁻¹. The “N-terminal VD IL-17 Neutralization Assay EC50” value in the experiment with Recombinant Human IL-17 [4] came out at 0.0069 nM.

Usually Kd stands for a measure of binding affinity in units of concentration. By koff is commonly meant the first-order rate constant of dissociation. What is called kon is the rate constant with which the complex forms.

(Values after patent US20120034160A1 (AbbVie / Abbott, published 2012).)
